# Measurements from paper PMC3103603 (Immunity, 2011).
# T1: wild-type human B7-H2Ig fusion protein (human, UniProt O75144 19-256)
# T1 sequence (looked up): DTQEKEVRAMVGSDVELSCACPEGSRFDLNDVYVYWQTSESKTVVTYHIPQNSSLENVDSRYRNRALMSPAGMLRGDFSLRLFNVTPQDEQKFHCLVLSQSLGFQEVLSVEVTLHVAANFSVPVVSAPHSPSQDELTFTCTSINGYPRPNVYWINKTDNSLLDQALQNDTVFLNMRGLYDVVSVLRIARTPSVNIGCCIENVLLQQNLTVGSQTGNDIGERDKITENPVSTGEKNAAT
# B1: human ICOSIg fusion protein (Fc fusion, UniProt Q9Y6W8 21-140, looked up)
# chain: EINGSANYEMFIFHNGGVQILCKYPDIVQQFKMQLLKGGQILCDLTKTKGSGNTVSIKSLKFCHSQLSNNSVSFFLYNLDHSHANYYFCNLSIFDPPPFKVTLTGGYLHIYESQLCCQLK
# Target: T1, wild-type human B7-H2Ig fusion protein
# Experiment: flow cytometry on cells
binder,measurement,value
B1,binding result,binds
